Experimental data: EP4786489A1, “IL-22 MUTANT, PREPARATION METHOD THEREFOR, AND USE THEREOF” (Nanjing Novoacine Biotechnology Co., Ltd., priority 2023, dated 2025)
Numbering of substitutions follows the chain as printed. Each block holds one molecule with its values, some of them ahead of it.

Columns and labels:
Assay in all cases: cell-based or functional assay
[1] = molecular target: heterodimeric receptor complex (IL-22Rα/IL-10Rβ) (human) (UniProt Q8N6P7)
[2] = molecular target: T1, heterodimeric receptor complex (IL-22Rα/IL-10Rβ) (human, UniProt Q8N6P7 16-574; Q08334 20-325)
T1 sequence (looked up) 1: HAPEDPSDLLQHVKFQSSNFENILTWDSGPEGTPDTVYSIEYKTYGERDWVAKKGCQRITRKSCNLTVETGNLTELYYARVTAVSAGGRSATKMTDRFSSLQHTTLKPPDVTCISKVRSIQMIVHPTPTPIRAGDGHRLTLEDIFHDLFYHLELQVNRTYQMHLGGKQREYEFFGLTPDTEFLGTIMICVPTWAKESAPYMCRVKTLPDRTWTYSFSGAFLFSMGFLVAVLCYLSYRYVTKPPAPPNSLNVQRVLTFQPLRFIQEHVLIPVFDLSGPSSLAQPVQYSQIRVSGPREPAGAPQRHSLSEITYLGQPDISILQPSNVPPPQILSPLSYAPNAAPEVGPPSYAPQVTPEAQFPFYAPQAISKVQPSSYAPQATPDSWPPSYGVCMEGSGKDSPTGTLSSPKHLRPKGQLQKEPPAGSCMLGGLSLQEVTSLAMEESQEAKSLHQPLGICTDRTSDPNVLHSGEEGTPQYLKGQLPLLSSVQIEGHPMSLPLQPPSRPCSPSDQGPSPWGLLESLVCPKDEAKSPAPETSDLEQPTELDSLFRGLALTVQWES
T1 sequence (looked up) 2: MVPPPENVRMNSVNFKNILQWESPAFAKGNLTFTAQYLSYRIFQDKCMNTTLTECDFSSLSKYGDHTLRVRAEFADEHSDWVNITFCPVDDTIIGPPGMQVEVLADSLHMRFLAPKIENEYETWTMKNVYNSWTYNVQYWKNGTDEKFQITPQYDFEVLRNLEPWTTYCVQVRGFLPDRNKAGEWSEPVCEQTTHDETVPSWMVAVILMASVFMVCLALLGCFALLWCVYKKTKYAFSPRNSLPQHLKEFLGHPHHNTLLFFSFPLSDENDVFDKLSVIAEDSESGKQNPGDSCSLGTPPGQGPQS

[3] = molecular target: T1, heterodimeric receptor complex …; remark: listed apart in the source
[4] = molecular target: T1, heterodimeric receptor complex …; remark: listed apart in the source
[5] = molecular target: T1, heterodimeric receptor complex …; remark: listed apart in the source
[6] = molecular target: T1, heterodimeric receptor complex …; remark: listed apart in the source

- EC50 for STAT1 Activation (nM); pSTAT1 FACS, HT-29 cells [1]: 49.9 nM
- EC50 for STAT3 Activation (nM); pSTAT3 FACS, HT-29 cells [1]: 12.9 nM
- HaCaT: HT29 ratio (higher is better); p-STAT3 EC50, FACS [1]: 5.8
- STAT1/STAT3 EC50 ratio (higher is better); FACS, HT29 cells [1]: 3.2
- STAT1/STAT3 EC50 ratio (higher is better); FACS, HT-29 cells [1]: 3.9
- STAT1 Activation EC50 (nM); pSTAT1 FACS, HT29 cells [1]: 12.6 nM
- STAT3 Activation EC50 (nM); pSTAT3 FACS, HT29 cells [1]: 3.9 nM
- p-STAT3 EC50 (nM), HaCaT; FACS [1]: 22.7 nM
Molecule: IL-22-Fc (Fc fusion)

- EC50 for STAT1 Activation (nM); pSTAT1 FACS, HT-29 cells [2]: 279 nM
- EC50 for STAT3 Activation (nM); pSTAT3 FACS, HT-29 cells [2]: 4.13 nM
- STAT1/STAT3 EC50 ratio (higher is better); FACS, HT-29 cells [2]: 67.5
- STAT1/STAT3 Ratio (higher is better); ELISA, COLO205 cells [3]: 2.34
- STAT1 Activation EC50 (nM); p-STAT1 ELISA, COLO205 cells [3]: 17.4 nM
- STAT1 Activation, Fold change relative to wt IL-22; p-STAT1 ELISA, COLO205 cells [3]: 18.5 fold
- STAT3 Activation EC50 (nM); p-STAT3 ELISA, COLO205 cells [3]: 0.525 nM
- STAT3 Activation, Fold change relative to wt IL-22; p-STAT3 ELISA, COLO205 cells [3]: 7.92 fold
- STAT1/STAT3 EC50 ratio (higher is better); FACS, HT29 cells [4]: 9.3
- STAT1 Activation EC50 (nM); pSTAT1 FACS, HT29 cells [4]: 23 nM
- STAT3 Activation EC50 (nM); pSTAT3 FACS, HT29 cells [4]: 2.47 nM
B1: hB3-his (ligand)
chain: APISSHCRLDKENFQQPYITNRTFMLAKEASLADNNTDVRLIGEKLFHGVSMSERCYLMKQVLNFTLEEVLFPQSDRFQPYMAEVVPFLAALSNALSTCHIEGDDLHIQRNVQKLKDTVKKLGESGEIKAIGELDLLFMSLRNACIHHHHHH

- EC50 fold change of the test candidate relative to wt IL-22; STAT3 reporter gene assay, COLO205/SIE cells (Assay1) [5]: 1 fold
- EC50 fold change of the test candidate relative to wt IL-22; STAT3 reporter gene assay, COLO205/SIE cells (Assay2) [5]: 1 fold
- EC50 for STAT3 Activation (nM); STAT3 reporter gene assay, COLO205/SIE cells (Assay1) [5]: 0.00529 nM
- EC50 for STAT3 Activation (nM); STAT3 reporter gene assay, COLO205/SIE cells (Assay2) [5]: 0.00303 nM
- STAT1/STAT3 Ratio (higher is better); ELISA, COLO205 cells [3]: 1
- STAT1 Activation EC50 (nM); p-STAT1 ELISA, COLO205 cells [3]: 0.939 nM
- STAT1 Activation, Fold change relative to wt IL-22; p-STAT1 ELISA, COLO205 cells [3]: 1 fold
- STAT3 Activation EC50 (nM); p-STAT3 ELISA, COLO205 cells [3]: 0.0663 nM
- STAT3 Activation, Fold change relative to wt IL-22; p-STAT3 ELISA, COLO205 cells [3]: 1 fold
B2: wt IL-22 (ligand)
chain: APISSHCRLDKSNFQQPYITNRTFMLAKEASLADNNTDVRLIGEKLFHGVSMSERCYLMKQVLNFTLEEVLFPQSDRFQPYMQEVVPFLARLSNRLSTCHIEGDDLHIQRNVQKLKDTVKKLGESGEIKAIGELDLLFMSLRNACI

- STAT1/STAT3 EC50 ratio (higher is better); FACS, HT29 cells [4]: 2.4
- STAT1 Activation EC50 (nM); pSTAT1 FACS, HT29 cells [4]: 134 nM
- STAT3 Activation EC50 (nM); pSTAT3 FACS, HT29 cells [4]: 55.5 nM
B3: 60K-PEG-IL22-P50C (ligand)
chain: B2 chain with P17C
modifications: Cys at position 17 (SEQ ID NO:1 numbering) conjugated to 60 kDa PEG-maleimide (thioether linkage)

- STAT1/STAT3 EC50 ratio (higher is better); FACS, HT29 cells [4]: 29
- STAT1 Activation EC50 (nM); pSTAT1 FACS, HT29 cells [4]: 574 nM
- STAT3 Activation EC50 (nM); pSTAT3 FACS, HT29 cells [4]: 19.8 nM
B4: 80K-PEG-IL22-P120C (ligand)
chain: B2 chain with P87C
modifications: Cys at position 87 (SEQ ID NO:1 numbering) conjugated to 80 kDa PEG-maleimide (thioether linkage)

- STAT1/STAT3 EC50 ratio (higher is better); FACS, HT29 cells [4]: 7.8
- STAT1 Activation EC50 (nM); pSTAT1 FACS, HT29 cells [4]: 369 nM
- STAT3 Activation EC50 (nM); pSTAT3 FACS, HT29 cells [4]: 47.5 nM
B5: 40K-PEG-IL22-P50C (ligand)
chain: B2 chain with P17C
modifications: Cys at position 17 (SEQ ID NO:1 numbering) conjugated to 40 kDa PEG-maleimide (thioether linkage)

- STAT1/STAT3 EC50 ratio (higher is better); FACS, HT29 cells [4]: 3.3
- STAT1 Activation EC50 (nM); pSTAT1 FACS, HT29 cells [4]: 62.3 nM
- STAT3 Activation EC50 (nM); pSTAT3 FACS, HT29 cells [4]: 18.9 nM
B6: 80K-PEG-IL22-P50C (ligand)
chain: B2 chain with P17C
modifications: Cys at position 17 (SEQ ID NO:1 numbering) conjugated to 80 kDa PEG-maleimide (thioether linkage)

- HaCaT: HT29 ratio (higher is better); p-STAT3 EC50, FACS [6]: 12.9
- p-STAT3 EC50 (nM), HaCaT; FACS [6]: 7.44 nM
- STAT1/STAT3 EC50 ratio (higher is better); FACS, HT29 cells [4]: 16.3
- STAT1 Activation EC50 (nM); pSTAT1 FACS, HT29 cells [4]: 9.41 nM
- STAT3 Activation EC50 (nM); pSTAT3 FACS, HT29 cells [4]: 0.577 nM
B7: 60K-PEG-IL22-D109C (ligand)
chain: B2 chain with D76C
modifications: Cys at position 76 (SEQ ID NO:1 numbering) conjugated to 60 kDa PEG-maleimide (thioether linkage)

- STAT1/STAT3 EC50 ratio (higher is better); FACS, HT29 cells [4]: 9.1
- STAT1 Activation EC50 (nM); pSTAT1 FACS, HT29 cells [4]: 55.3 nM
- STAT3 Activation EC50 (nM); pSTAT3 FACS, HT29 cells [4]: 6.05 nM
B8: 40K-PEG-IL22-P120C (ligand)
chain: B2 chain with P87C
modifications: Cys at position 87 (SEQ ID NO:1 numbering) conjugated to 40 kDa PEG-maleimide (thioether linkage)

- HaCaT: HT29 ratio (higher is better); p-STAT3 EC50, FACS [6]: 37.7
- p-STAT3 EC50 (nM), HaCaT; FACS [6]: 428 nM
- STAT1/STAT3 EC50 ratio (higher is better); FACS, HT29 cells [4]: 7.6
- STAT1 Activation EC50 (nM); pSTAT1 FACS, HT29 cells [4]: 86.2 nM
- STAT3 Activation EC50 (nM); pSTAT3 FACS, HT29 cells [4]: 11.4 nM
B9: 60K-PEG-IL22-P120C (ligand)
chain: B2 chain with P87C
modifications: Cys at position 87 (SEQ ID NO:1 numbering) conjugated to 60 kDa PEG-maleimide (thioether linkage)

- STAT1/STAT3 EC50 ratio (higher is better); FACS, HT29 cells [4]: 7.1
- STAT1 Activation EC50 (nM); pSTAT1 FACS, HT29 cells [4]: 7 nM
- STAT3 Activation EC50 (nM); pSTAT3 FACS, HT29 cells [4]: 0.984 nM
B10: 80K-PEG-IL22-D109C (ligand)
chain: B2 chain with D76C
modifications: Cys at position 76 (SEQ ID NO:1 numbering) conjugated to 80 kDa PEG-maleimide (thioether linkage)

- STAT1/STAT3 EC50 ratio (higher is better); FACS, HT29 cells [4]: 31.3
- STAT1 Activation EC50 (nM); pSTAT1 FACS, HT29 cells [4]: 10.9 nM
- STAT3 Activation EC50 (nM); pSTAT3 FACS, HT29 cells [4]: 0.348 nM
B11: 40K-PEG-IL22-D109C (ligand)
chain: B2 chain with D76C
modifications: Cys at position 76 (SEQ ID NO:1 numbering) conjugated to 40 kDa PEG-maleimide (thioether linkage)
